{"source": "paper PMC5150216", "about": "“Actin activates Pseudomonas aeruginosa ExoY nucleotidyl cyclase toxin and ExoY-like effector domains from MARTX toxins” (Nature Communications, 2016)", "key": {"[1]": {"target": "T1, α-actin from rabbit skeletal muscle (rabbit, UniProt P68135 1-377)", "assay": "co-sedimentation", "conditions": "both partners purified"}, "[2]": {"target": "T1, α-actin from rabbit skeletal muscle", "assay": "co-sedimentation; as a6, F-actin with 6 μM phalloidin", "conditions": "both partners purified"}}, "data": [{"binder": "MBP-ExoY^K81M-ST (enzyme, also called His-MBP-ExoY^K81M-ST; source: expressed from pEA12 (Ptac promoter); purified under non-denaturing conditions (HisTrap, StrepTrap, Superdex 200); not shown: His-tag, N-terminal, kept; MBP, N-terminal, kept; Strep-tagII, C-terminal, kept) MRIDGHRQVVSNATAQPGPLLRPADMQARALQDLFDAQGVGVPVEHALRMQAVARQTNTVFGIRPVERIVTTLIEEGFPTMGFSVKGKSSNWGPQAGFICVDQHLSKREDRDTAEIRKLNLAVAKGMDGGAYTQTDLRISRQRLAELVRNFGLVADGVGPVRLLTAQGPSGKRYEFEARQEPDGLYRISRLGRSEAVQVLASPACGLAMTADYDLFLVAPSIEAHGSGGLDARRNTAVRYTPLGAKDPLSEDGFYGREDMARGNITPRTRQLVDALNDCLGRGEHREMFHHSDDAGNPGSHMGDNFPATFYLPRAMEHRVGEESVRFDEVCVVADRKSFSLLVECIKGNGYHFTAHPDWNVPLRPSFQEALDFFQRKV", "values": [{"measurement": "Kd", "setting": "[1]", "value": "1600 ± 300", "unit": "nM"}, {"measurement": "stoichiometry N", "setting": "[1]", "value": 1}, {"measurement": "Kd", "setting": "[2]", "value": "1600 to 1800", "unit": "nM"}]}]}
